T1: synthetic 13-residue sulfatase consensus motif peptide LCSPSRGSLFTGR
T1 chain: LCSPSRGSLFTGR


Biological target: T1, synthetic 13-residue sulfatase …

Protein	conversion of cysteine to FGly in the peptide, by mass spectrometry (FGE activity assay)
Strep FGE Cys272Ser mutant (protein) AVAAPSPAAAAEPGPAARPRSTRGQVRLPGGEFAMGDAFGEGYPADGETPVHTVRLRPFHIDETAVTNARFAAFVKATGHVTDAERFGSSAVFHLVVAAPDADVLGSAAGAPWWINVRGAHWRRPEGARSDITGRPNHPVVHVSWNDATAYARWAGKRLPTEAEWEYAARGGLAGRRYAWGDELTPGGRWRCNIWQGRFPHVNTAEDGHLSTAPVKSYRPNGHGLWNTAGNVWEWCSDWFSPTYYAESPTVDPHGPGTGAARVLRGGSYLSHDSYCNRYRVAARSSNTPDSSSGNLGFRCANDADLTSGSAAE	serine mutants were unable to generate FGly in vitro
Streptomyces coelicolor formylglycine generating enzyme (Strep FGE, SCO7548), recombinant wild type (protein) AVAAPSPAAAAEPGPAARPRSTRGQVRLPGGEFAMGDAFGEGYPADGETPVHTVRLRPFHIDETAVTNARFAAFVKATGHVTDAERFGSSAVFHLVVAAPDADVLGSAAGAPWWINVRGAHWRRPEGARSDITGRPNHPVVHVSWNDATAYARWAGKRLPTEAEWEYAARGGLAGRRYAWGDELTPGGRWRCNIWQGRFPHVNTAEDGHLSTAPVKSYRPNGHGLWNTAGNVWEWCSDWFSPTYYAESPTVDPHGPGTGAARVLRGGSYLCHDSYCNRYRVAARSSNTPDSSSGNLGFRCANDADLTSGSAAE	WT Strep FGE was able to oxidize the synthetic peptide
Strep FGE Cys277Ser mutant (protein) AVAAPSPAAAAEPGPAARPRSTRGQVRLPGGEFAMGDAFGEGYPADGETPVHTVRLRPFHIDETAVTNARFAAFVKATGHVTDAERFGSSAVFHLVVAAPDADVLGSAAGAPWWINVRGAHWRRPEGARSDITGRPNHPVVHVSWNDATAYARWAGKRLPTEAEWEYAARGGLAGRRYAWGDELTPGGRWRCNIWQGRFPHVNTAEDGHLSTAPVKSYRPNGHGLWNTAGNVWEWCSDWFSPTYYAESPTVDPHGPGTGAARVLRGGSYLCHDSYSNRYRVAARSSNTPDSSSGNLGFRCANDADLTSGSAAE	serine mutants were unable to generate FGly in vitro
Strep FGE Trp234Phe mutant (protein) AVAAPSPAAAAEPGPAARPRSTRGQVRLPGGEFAMGDAFGEGYPADGETPVHTVRLRPFHIDETAVTNARFAAFVKATGHVTDAERFGSSAVFHLVVAAPDADVLGSAAGAPWWINVRGAHWRRPEGARSDITGRPNHPVVHVSWNDATAYARWAGKRLPTEAEWEYAARGGLAGRRYAWGDELTPGGRWRCNIWQGRFPHVNTAEDGHLSTAPVKSYRPNGHGLWNTAGNVFEWCSDWFSPTYYAESPTVDPHGPGTGAARVLRGGSYLCHDSYCNRYRVAARSSNTPDSSSGNLGFRCANDADLTSGSAAE	mutation of Trp234 to Phe did not abolish activity
Mycobacterium tuberculosis formylglycine generating enzyme (Mtb FGE, Rv0712), recombinant wild type (protein) LTELVDLPGGSFRMGSTRFYPEEAPIHTVTVRAFAVERHPVTNAQFAEFVSATGYVTVAEQPLDPGLYPGVDAADLCPGAMVFCPTAGPVDLRDWRQWWDWVPGACWRHPFGRDSDIADRAGHPVVQVAYPDAVAYARWAGRRLPTEAEWEYAARGGTTATYAWGDQEKPGGMLMANTWQGRFPYRNDGALGWVGTSPVGRFPANGFGLLDMIGNVWEWTTTEFYPHHRIDPPSTACCAPVKLATAADPTISQTLKGGSHLCAPEYCHRYRPAARSPQSQDTATTHIGFRCVADPVSG	Recombinant Rv0712 was able to modify a synthetic peptide containing the sulfatase motif as determined by mass spectrometry
